Measurements as given in PMC7954794, “Protein context shapes the specificity of SH3 domain-mediated interactions in vivo” (Nature Communications, 2021).

Test system: Abp1 PPIs
Assay: DHFR-PCA of Abp1 SH3-swapped baits (Fig. 2B-D, S2C, S2F);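 on Protein-protein interaction distance between Abp1 SH3-swapped baits, to ABP1: Euclidean distance between DHFR-PCA score profiles of the baits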;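 on Protein-protein interaction distance between Abp1 SH3-swapped baits, to BEM1-2: Euclidean distance between DHFR-PCA score profiles of the baits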;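 on Protein-protein interaction distance between Abp1 SH3-swapped baits, to BOI1: Euclidean distance between DHFR-PCA score profiles of the baits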;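 on Protein-protein interaction distance between Abp1 SH3-swapped baits, to BZZ1-1: Euclidean distance between DHFR-PCA score profiles of the baits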
Type: cell-based, Saccharomyces cerevisiae
Details: sheet Fig2C
In short: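 Yeast DHFR-PCA in which Abp1 baits, carrying their SH3 replaced by CRISPR–Cas9 with one of 27 yeast SH3s or human CTTN, HCLS1 or DBNL SH3s, were mated against 575 SH3-associated DHFR F[3] preys plus 40 negative controls. Four tests were run per PPI. Diploids were selected twice (48 h, 30 °C), then grown 4 days on PCA selection media.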

B1: SDC25 (protein, UniProt P0CF34 1-1048, looked up)
Putative truncated guanine …: MPITSSPDLFYLNDCDVVYWYDLTRLVCHYVNLTERDLLANEREKFLTSLDLLTAQITYVYMLFRNLRLVEDSFKKTLKKLIYTLSRFSINANIWFHSTLFEEREAIASQKDPERRSPLLQSILGTFQKFHFLLRLLHFLSNPNELTILPQLTPRFFKDSFNTISWNNPFLRKRLNQHMSHDLPRQMIKAVAGASGIVAENIDEIPASKQGTSCSSETSHHSPSAPFQRRRRGTIFSNVSGSSDESDTIWSKRKKPYPLNEETLSLVRARKKQLDGKLKQMIKSANEYLSNTANFSKMLNFEMNFKTYEEVSGTIPIIDILENLDLTIFLNLRELGDENRVFDEDVAIDDEDEEFLKHSLSSLSYILSDYFNMKQYFHDVVVKFIIVAQHLTLEDPFVFSPMQNDLPTGYYEPMKPSSLNLDNAKDKKNGSQNTDIQEEEDEYEPDPDSLILFHNLINQDSDFNDLKFFNLAHVFKKSCDDYFDVLKLAIEFVNQLILERENLLNYAARMMKNNITELLLRGEEGYGSYDGGETAEKSDTNAVYADSDTKDNDEWRDSQVKLPRYLQREYDSELIWGSNNRIKGGSKHALISYLTDNEKKDLFFDITFLITFRSIFTTTEFLSYLISQYNLDPPEDLCFEEYNEWVTKKLIPVKCRVVEIMTTFFKQYWFLGYDEPDLATLNLDYFAQVAIKENITGSVELLKEVNQKFKHGNIQEATAPMKTLDQQICQDHYSGTLYSTTESILAVDPVLFATQLTILEHEIYCEITIFDCLQKIWKNKYTKSYGASPGLNEFISFANKLTNFISYSVVKEADKSKRAKLLSHFIFIAEYCRKFNNFSSMTAIISALYSSPIYRLEKTWQAVIPQTRDLLQSLNKLMDPKKNFINYRNELKSLHSAPCVPFFGVYLSDLTFTDSGNPDYLVLEHGLKGVHDEKKYINFNKRSRLVDILQEIIYFKKTHYDFTKDRTVIECISNSLENIPHIEKQYQLSLIIEPKPRKKVVPNSNSNNKSQEKSRDDQTDEGKTSTKKDRFPKFQLHKTKKKAPKVSK
Abp1 bait with swapped SH3, distance to bait with ABP1 SH3
  Protein-protein interaction distance between Abp1 SH3-swapped baits, to ABP1: 33.14
Distance to Abp1 bait with BBC1 SH3
  Protein-protein interaction distance between Abp1 SH3-swapped baits, to BBC1: 31.85
Distance to Abp1 bait with BEM1-1 SH3
  Protein-protein interaction distance between Abp1 SH3-swapped baits, to BEM1-1: 25.75
Distance to Abp1 bait with BEM1-2 SH3
  Protein-protein interaction distance between Abp1 SH3-swapped baits, to BEM1-2: 6.672
Distance to Abp1 bait with BOI1 SH3
  Protein-protein interaction distance between Abp1 SH3-swapped baits, to BOI1: 29.16
Distance to Abp1 bait with BOI2 SH3
  Protein-protein interaction distance between Abp1 SH3-swapped baits, to BOI2: 28.39
Distance to Abp1 bait with BUD14 SH3
  Protein-protein interaction distance between Abp1 SH3-swapped baits, to BUD14: 24.65
Distance to Abp1 bait with BZZ1-1 SH3
  Protein-protein interaction distance between Abp1 SH3-swapped baits, to BZZ1-1: 32.5
Distance to Abp1 bait with BZZ1-2 SH3
  Protein-protein interaction distance between Abp1 SH3-swapped baits, to BZZ1-2: 29.97
Distance to Abp1 bait with CDC25 SH3
  Protein-protein interaction distance between Abp1 SH3-swapped baits, to CDC25: 14.8
Distance to Abp1 bait with CTTN SH3
  Protein-protein interaction distance between Abp1 SH3-swapped baits, to CTTN: 27.81
Distance to Abp1 bait with CYK3 SH3
  Protein-protein interaction distance between Abp1 SH3-swapped baits, to CYK3: 15.21
Distance to Abp1 bait with DBNL SH3
  Protein-protein interaction distance between Abp1 SH3-swapped baits, to DBNL: 31.69
Distance to Abp1 bait with FUS1 SH3
  Protein-protein interaction distance between Abp1 SH3-swapped baits, to FUS1: 24.28
Distance to Abp1 bait with HCLS1 SH3
  Protein-protein interaction distance between Abp1 SH3-swapped baits, to HCLS1: 34.87
Distance to Abp1 bait with HOF1 SH3
  Protein-protein interaction distance between Abp1 SH3-swapped baits, to HOF1: 7.905
Distance to Abp1 bait with HSE1 SH3
  Protein-protein interaction distance between Abp1 SH3-swapped baits, to HSE1: 31.59
Distance to Abp1 bait with LSB1 SH3
  Protein-protein interaction distance between Abp1 SH3-swapped baits, to LSB1: 37.12
Distance to Abp1 bait with LSB3 SH3
  Protein-protein interaction distance between Abp1 SH3-swapped baits, to LSB3: 36.63
Distance to Abp1 bait with MYO3 SH3
  Protein-protein interaction distance between Abp1 SH3-swapped baits, to MYO3: 35.91
Distance to Abp1 bait with MYO5 SH3
  Protein-protein interaction distance between Abp1 SH3-swapped baits, to MYO5: 35.29
Distance to Abp1 bait with NBP2 SH3
  Protein-protein interaction distance between Abp1 SH3-swapped baits, to NBP2: 24.44
Distance to Abp1 bait with PEX13 SH3
  Protein-protein interaction distance between Abp1 SH3-swapped baits, to PEX13: 35.86
Distance to Abp1 bait with PIN3 SH3
  Protein-protein interaction distance between Abp1 SH3-swapped baits, to PIN3: 34.35
Distance to Abp1 bait with RVS167 SH3
  Protein-protein interaction distance between Abp1 SH3-swapped baits, to RVS167: 34.37
Distance to Abp1 bait with SDC25 SH3
  Protein-protein interaction distance between Abp1 SH3-swapped baits, to SDC25: 0.00
Distance to Abp1 bait with SHO1 SH3
  Protein-protein interaction distance between Abp1 SH3-swapped baits, to SHO1: 31.28
Distance to Abp1 bait with SLA1-1 SH3
  Protein-protein interaction distance between Abp1 SH3-swapped baits, to SLA1-1: 14.07
Distance to Abp1 bait with SLA1-2 SH3
  Protein-protein interaction distance between Abp1 SH3-swapped baits, to SLA1-2: 23.99
Distance to Abp1 bait with SLA1-3 SH3
  Protein-protein interaction distance between Abp1 SH3-swapped baits, to SLA1-3: 37.49
Distance to Abp1 bait with YSC84 SH3
  Protein-protein interaction distance between Abp1 SH3-swapped baits, to YSC84: 36.86
